Test results from PMC5489419 (Molecular cell, 2017).

Target: WWP2 N-terminal fragment X (C2 domain, WW1 domain, WW2 domain) of TEV-cleaved WWP2 (human, UniProt O00308 1-395)
Assay: SEC

binding result: binds
B1: WWP2 C-terminal fragment Y (WW3 domain, WW4 domain, HECT domain) of TEV-cleaved WWP2 (domain or fragment)
chain: not shown
